Columns and labels:
[1] = tested on: bacterial DNA, RNA, and protein synthesis; assay: DNA, RNA and protein synthesis in uninfected bacteria expressing cloned SPO1 genes; assay type: cell-based, B. subtilis or E. coli; settings: expression of cloned gene(s) in uninfected cells
Method: Pulse Labeling: Rates of synthesis of host and phage RNA or protein were measured in C4 medium as described previously (Wei and Stewart, 1993), by pulse-labeling for 5 minutes with [5-^3H]uridine, or [4,5-^3H]leucine, precipitating with TCA, and counting the precipitate. Since SPO1 DNA contains hmUra in place of thymine, host DNA synthesis could be measured independently by pulsing with [methyl-^3H]thymidine. Phage DNA synthesis was measured by pulsing with [2,8-^3H]adenine, and measuring alkali-stable, TCA-precipitable counts. Pulsing with [2,8-^3H]adenine measures host as well as phage DNA synthesis, but most host DNA synthesis has been shut off by the time that phage replication begins, even in mutant infections, so incorporation of label after 12 minutes is overwhelmingly into phage DNA. The time given for each pulse is the time at which the pulse began.
Adding gene 50 to the 51 clone increases its lethal efficiency, as does combining all 3 genes in a single clone. […] Mutants resistant to genes 51/50 have been isolated, but the mutant gene(s) have not yet been identified. […] The effects on DNA and protein synthesis are probably indirect effects of the inhibition of host RNA synthesis.
The simplest hypothesis as to how GP44/50/51 regulate gene expression is that they interact with the host's RNAP to change its transcriptional specificity. […]

B. subtilis [2] = assay: Effect of induced expression of cloned SPO1 genes on growth and viability of B. subtilis (liquid medium and colony formation); assay type: cell-based; settings: cloned gene(s) expressed from IPTG-inducible promoter, * = lethality conclusion based on failure to clone, ** = data not conclusive
Excerpt: (§1) For analysis of antimicrobial activity we first cloned most of the 24 host-takeover genes (genes 37-60) singly or in multiple gene combinations into a B. subtilis/E. coli shuttle vector (pPW19) under control of an IPTG-inducible promoter (Wei and Stewart, 1993). […] These remaining genes are being cloned using expression vectors with more tightly regulated promoters, such as pJONEX4 (Sayers, 1996), pET101, or pX (Kim et al., 1996). The transformed E. coli and B. subtilis were used to determine the antimicrobial activity, if any, of the cloned genes. The effect of induction on bacterial growth and viability was measured both in liquid medium and by colony formation. Definitive establishment of lethality was shown by loss of the ability to form colonies even after removal from the inducing agent. Indication of probable lethality was based on total inability to form colonies under inducing conditions.

[3] = tested on: E. coli strain DH5(pPW27); assay: Killing of E. coli by IPTG-induced expression in liquid medium, viable cells counted by plating without inducer (FIG. 8); assay type: cell-based; settings: within three hours after induction at time 0 (0.2 mM IPTG), plating in the absence of inducer
Method: FIG. 8. Expression of SPO1 GP44 in E. coli. Cells of E. coli strain DH5(pPW27), which expresses SPO1 gene 44 from an IPTG-inducible promoter, were transformed either with vector pACYC177 or with plasmid pPW40, in which the mutant ipoB gene had been cloned in pACYC177. Aliquots of the two cultures were induced by adding 0.2 mM IPTG at time 0, and were assayed for viable cells at various times thereafter, by plating on media lacking IPTG. Open symbols, no IPTG; Closed symbols, 0.2 mM IPTG added at time 0; Squares, mutant rpoB; and Circles, no mutant rpob. Viable cell count is expressed in cells/ml ×10^−6.
(§2) In cells growing in liquid medium, expression of the cloned gene 44 was induced at time 0. At subsequent times, the number of cells remaining viable was measured by plating in the absence of inducer. More than 99% of the cells were killed within three hours.

E. coli = assay: Effect of induced expression of cloned SPO1 genes on growth and viability of E. coli (liquid medium and colony formation); assay type: cell-based; settings: cloned gene(s) expressed from IPTG-inducible promoter, * = lethality conclusion based on failure to clone, ** = data not conclusive
Excerpt: as §1

[4] = tested on: bacterial DNA, RNA, and protein synthesis; settings: uninfected cells of either B. subtilis or E. coli; Wei and Stewart, 1993, 1995; cited from earlier work
bacteria = assay: Toxicity or lethality of expression of cloned SPO1 genes, bacterium not given; assay type: cell-based
Excerpt: as §1, §2

B. subtilis [5] = assay: Effect of gene expression on cell division of B. subtilis; assay type: cell-based; settings: expression of the gene alone in B. subtilis
Excerpt: Genes 58-56: Expression of the whole operon is lethal to both species. […] Infection by SPO1 inhibits cell division, and a gene 56 mutation prevents that inhibition. B. subtilis mutants resistant to GP56 have been isolated, but the mutant gene(s) has not yet been identified.

Molecule | effect of expression on bacterial DNA, RNA and protein synthesis [1] | Lethality, B. subtilis (B. subtilis [2]; listed as 44) | cells killed [3] | Lethality, E. coli (E. coli; listed as 44) | effect of expression on bacterial RNA synthesis and viability [4] | Lethality, B. subtilis (B. subtilis [2]; listed as 56) | toxicity or lethality of expression (bacteria) | effect on cell division (B. subtilis [5]) | Lethality, E. coli (E. coli) | Lethality, B. subtilis (B. subtilis [2]; listed as 51) | Lethality, E. coli (E. coli; listed as 51)
Gene 44: product of SPO1 host-takeover gene 44, SEQ ID NO: 8 (protein, SPO1 Bacteriophage) MAKSNNVYVVNGEEKVSTLAEVAKVLGVSRVSKKDVEEGKYDVVVEEAAVSLADTEEVVEEVVTEEEDILEGVEVVEDEEEEEAAEDVEEPTSEEDSEDEWEEGYPVATEVEEDEDEEIEYPEVGDFEDEKAIKKYIKGLTDEQLQAWCELEGAEWVENEHRNINRMRMAMAIKAVHFPELAKKPSSKKKSKYAEYTTEELVEMAIDNNVEVRDDKGNERILRMYTIIALREAGLIS | inhibiting DNA, RNA, and protein synthesis | Lethal | More than 99% | Lethal | caused the shutoff of bacterial RNA synthesis and cell death | – | – | – | – | – | –
Gene 56: product of SPO1 host-takeover gene 56, SEQ ID NO: 20 (protein, SPO1 Bacteriophage) MFKYTDRSVRQYIERQQRSAMLEQEQAEKDKKERRKAGLLFFGTIVVLVAVVAVYIVPQSLDAMWHENYEKPAQEAARN | – | – | – | – | – | Lethal | lethal effect | specifically inhibiting cell division, without affecting DNA synthesis or chromosomal segregation | Mildly toxic | – | –
Gene 51: product of SPO1 host-takeover gene 51, SEQ ID NO: 15 (protein, SPO1 Bacteriophage) MAKINKGYVANFIEENGFPEQGHFEEKKDLQAFYKHLSTEQLEEWVELEGLEVKDTDSDSIYRMRLCMAILYLNFPKKTAGKKKASPYKHISLEELVQMATDNDIEVKHTDSDKILRMRTIMALKEAGKLG | inhibiting DNA, RNA, and protein synthesis | – | – | – | – | – | – | – | – | Lethal | Lethal

Source: patent publication US20050054571A1, “Antimicrobial proteins from the SPO1 bacteriophage” (Rice University, priority 2003, published 2005)
